From patent publication US20220403048A1, “BINDING MOLECULES TO ARGINASE II [ARG2]” (Cancer Research Technology Limited, priority 2019, published 2022)
Substitutions are numbered along the chain they refer to. One block for each molecule: values may come before it.

Assays:
human ARG1 = molecular target: T1, human ARG1 (Homo sapiens, UniProt P05089); assay: Bio-Layer Interferometry (OctetRED) binding, human ARG1; settings: Fab analyte up to 120 nM, screening assay on anti-His surface
T1 construct: Avi tag (N); His10 (after a GGG linker) (C); made in house; host or cells: E. coli BL21 (DE3)
T1 sequence (P05089 with tags, fused parts or gaps): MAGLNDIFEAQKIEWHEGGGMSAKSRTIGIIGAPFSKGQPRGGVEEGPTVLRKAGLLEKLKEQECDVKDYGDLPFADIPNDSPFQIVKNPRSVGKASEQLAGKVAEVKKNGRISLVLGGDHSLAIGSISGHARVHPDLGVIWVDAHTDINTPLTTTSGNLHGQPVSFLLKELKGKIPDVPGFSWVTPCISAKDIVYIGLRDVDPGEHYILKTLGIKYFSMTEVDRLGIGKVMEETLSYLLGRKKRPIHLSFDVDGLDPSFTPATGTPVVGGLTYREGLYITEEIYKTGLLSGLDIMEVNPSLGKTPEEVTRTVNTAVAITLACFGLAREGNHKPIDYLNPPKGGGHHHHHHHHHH
Procedure: (§1) The affinity of binding between the Fab of C0020187 and human ARG2, cynomolgus ARG2 and human ARG1 was estimated using assays in which the biotinylated ARG antigen was captured on a streptavidin sensor tip. A fresh sensor tip was used for each measurement and no regeneration was used. A series of dilutions of the C0020187 Fab (3.25-240 nM) were individually placed in contact with the ligand surface for a sufficient amount of time to observe sensorgrams that could be fitted to an appropriate binding model with confidence (typically 5 minutes), followed by an appropriate length of dissociation time (typically 10 minutes). Blank reference (0 nM Fab) data were subtracted from each dataset to reduce the impact of any buffer artefacts or non-specific binding effects. An appropriate binding model was then fitted simultaneously to the data from each analyte titration using the Octet Evaluation software.
(§2) The binding of affinity-matured antibodies to human ARG1 was also tested on the OctetRED system using a screening assay which stably captures […] as the ligand on an anti-His surface. The Fabs were typically tested in an analyte range of 1.8 to 120 nM, with an association time of 5 minutes and a dissociation time of 10 minutes. Sensors were regenerated using 10 mM glycine pH 1.5 after each cycle.
as §2, with “Binding” for “The binding”, “the second-generation” for “affinity-matured”, “ARG” for “ARG1”, “were” for “were typically”, “as” for “in an”, “up” for “range of 1.8”

human ARG2 = molecular target: T2, human ARG2 (Homo sapiens, UniProt P78540, E275H/R327K); assay: Bio-Layer Interferometry (OctetRED) binding kinetics, human ARG2
T2 construct: His10 (after a GGG linker) (C); made in house; host or cells: E. coli BL21 (DE3)
T2 sequence (P78540 23-354 E275H/R327K): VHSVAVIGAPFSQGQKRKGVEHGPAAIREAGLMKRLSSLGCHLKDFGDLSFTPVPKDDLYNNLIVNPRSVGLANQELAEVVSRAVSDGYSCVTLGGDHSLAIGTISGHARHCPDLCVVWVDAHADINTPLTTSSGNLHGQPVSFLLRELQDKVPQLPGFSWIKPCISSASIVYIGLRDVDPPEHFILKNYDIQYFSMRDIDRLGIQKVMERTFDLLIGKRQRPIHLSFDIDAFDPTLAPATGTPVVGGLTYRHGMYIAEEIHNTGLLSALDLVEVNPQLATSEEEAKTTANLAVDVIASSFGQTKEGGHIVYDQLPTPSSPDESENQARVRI
Excerpt: (§3) The OctetRED (Pall ForteBio) instrument was used to assess the kinetic parameters of the interactions between C0020187 and recombinantly produced human ARG2, cynomolgus ARG2 and human ARG1. The Octet biosensor uses an optical analytical technique that analyses the interference pattern of white light reflected from two surfaces: a layer of immobilised protein on the sensor tip, and an internal reference layer. Any changes in binding at the biosensor tip result in a shift in interference pattern, which can be measured in real time. Molecules associating with or dissociating from ligands at the biosensor tip shift the interference pattern and generate a response on the Octet system which is recorded by the acquisition software.
(§4) Typically, a defined concentration of the analyte species is brought into contact with the coupled ligand and any binding is detected as an increased in signal (association phase). This is followed by a period of buffer rinse, during which dissociation of the analyte species from the surface immobilised ligand can be observed as a decrease in signal (dissociation phase). Repetition of this with a range of analyte concentrations provides data for the analysis of binding kinetics.
(§5) An Octet Kinetics Buffer (PBS containing 0.01% BSA and 0.002% Tween20) is typically used as the diluent buffer for the analyte samples and as the flow buffer during the dissociation phase. The experimental data is recorded over time as shift in interference pattern (nm) over time, which is directly proportional to the optical thickness at the biosensor tip, which in turn is an approximate measure of the mass of analyte bound. The proprietary Octet Data Analysis software package can then be used to process data and fit binding models to the data sets. Returned association (ka, M^−1 s^−1) and dissociation (kd, s^−1) rate constants allow calculation of dissociation (KD, M) affinity constants.
as §1
(§6) Example results for C0020187 are shown in Table 9, showing the association rate constants (ka), dissociation rate constants (kd) and dissociation constants (KD). These parameters were derived from a 1:1 binding fit to the data.
(§7) The affinities of the affinity-matured antibodies to human ARG2 were measured on the OctetRED system as described in section 1.15 using the streptavidin capture method. Typically, an analyte titration range of 1.8 to 120 nM was used.
The affinities of the second-generation antibodies to human ARG2 were measured on the OctetRED system. A screening assay which stably captures His-tagged ARG2 as the ligand on an anti-His surface was utilised to screen the second-generation candidates as Fabs at an analyte range of 1.8 to 120 nM, with an association time of 5 minutes and a dissociation time of 10 minutes. Sensors were regenerated using 10 mM glycine pH 1.5 after each cycle. Based on this assay, six candidates with estimated affinities in the sub-nanomolar range were identified, and they were further profiled using an extended assay which is more suitable for antibodies of high affinities. […]

cynomolgus ARG2 = assay: Bio-Layer Interferometry (OctetRED) binding kinetics, cynomolgus ARG2; settings: Fab as analyte; cyno ARG2 ligand; affinity-matured antibodies
Sequence of cynomolgus ARG2 (as listed by the source): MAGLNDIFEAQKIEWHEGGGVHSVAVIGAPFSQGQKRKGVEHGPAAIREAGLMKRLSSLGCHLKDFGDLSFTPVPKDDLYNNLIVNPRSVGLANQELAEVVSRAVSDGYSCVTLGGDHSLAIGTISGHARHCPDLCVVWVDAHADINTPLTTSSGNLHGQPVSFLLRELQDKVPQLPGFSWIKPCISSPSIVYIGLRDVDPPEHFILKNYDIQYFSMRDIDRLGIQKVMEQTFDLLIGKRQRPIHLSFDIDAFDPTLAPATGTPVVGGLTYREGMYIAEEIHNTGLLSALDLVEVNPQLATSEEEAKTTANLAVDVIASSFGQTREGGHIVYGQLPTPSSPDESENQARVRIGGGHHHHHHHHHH
Excerpt: as §3, §4, §5, §1, §6, §7
The affinities of some of these antibodies to cynomolgus ARG2 were determined using the same assay, and the derived kinetic parameters are shown in Table 21.

[1] = second-generation Fab, extended assay: association 10 min, dissociation 40 min, 0.47 to 30 nM, streptavidin surface with bio-ARG2
[2] = Fab as analyte, streptavidin capture, analyte 1.8 to 120 nM, affinity-matured antibodies

Results, binding to human ARG1 (BLI) (human ARG1): No binding observed
ka (human ARG2; [1]): 195000 M⁻¹ s⁻¹
kd (human ARG2; [1]): 6.59e-05 s⁻¹
B1: C0021144: anti-ARG2 antibody, VH SEQ ID NO: 252, VL SEQ ID NO: 257 (antibody, listed as Homo sapiens, V domains shown)
VH: EVQLLESGGGLVQPGGSLRLSCAASGFTFRYDYHVWVRQAPGKGLEWVSAISGSGGSTYYADSVKGRFTISRDNSKNTLYLQMNSLRAEDTAVYYCARLRADLGLYMDLWGRGTLVTVSS
VL: QSVLTQPPSVSAAPGQKVTVSCSGSSSNIGNHHVSWYQQLPGTAPKLLIYDTTVLSSGVPDRFSGSKSGTSATLGITGLQTGDEADYYCGTWDELTSNLVFGGGTKLTVL
modifications: C0021144

Results, binding to human ARG1 (BLI) (human ARG1): No binding observed
ka (human ARG2; [1]): 159000 M⁻¹ s⁻¹
kd (human ARG2; [1]): 5.67e-05 s⁻¹
B2: C0021155: anti-ARG2 antibody, VH SEQ ID NO: 262, VL SEQ ID NO: 267 (antibody, listed as Homo sapiens, V domains shown)
VH: B1 VH with A23E, S63P
VL: B1 VL with Q1R, V20I, H33Y, V59I, K106R
modifications: C0021155

ka (human ARG2; [2]): 427000 M⁻¹ s⁻¹
kd (human ARG2; [2]): 0.00228 s⁻¹
B3: C0021032 Fab (antibody, V domains shown)
VH: EVQLLESGGGLVQPGGSLRLSCAASGFTFSSYAMSWVRQAPGKGLEWVSAYGYGIGSTYYADSVKGRFTISRDNSKNTLYLQMNSLRAEDTAVYYCARLRADLGLYMDLWGRGTLVTVSS
VL: QSVLTQPPSVSAAPGQKVTISCSGSSSNIGNHYVSWYQQLPGTAPKLLIYDNSERPSGIPDRFSGSKSGTSATLGITGLQTGDEADYYCGTWDSSLSALVFGGGTKLTVL

ka (human ARG2; [2]): 139000 M⁻¹ s⁻¹
kd (human ARG2; [2]): 0.00114 s⁻¹
B4: C0021118 Fab (antibody, V domains shown)
VH: B3 VH with Y51S, G52L, Y53T, G54N, I55P
VL: B3 VL with G90A, W92Y, S94T, S95N

ka (human ARG2; [2]): 326000 M⁻¹ s⁻¹
kd (human ARG2; [2]): 0.00108 s⁻¹
B5: C0021141 Fab (antibody, V domains shown)
VH: B3 VH with S30Y, S31P, Y32D, A33P, M34Q, S35G
VL: B3 VL with K17E, G30D

ka (human ARG2; [2]): 441000 M⁻¹ s⁻¹
kd (human ARG2; [2]): 0.00154 s⁻¹
B6: C0021096 Fab (antibody, V domains shown)
VH: EVQLLESGGGLVQPGGSLRLSCAASGFTFSSYAMSWVRQAPGKGLEWVSAISGYSGYYADSVKGRFTISRDNSKNTLYLQMNSLRAEDTAVYYCARLRADLGLYMDLWGRGTLVTVSS
VL: B3 VL with D51N, N52T, S53E, E54R, P56M

ka (human ARG2; [2]): 399000 M⁻¹ s⁻¹
kd (human ARG2; [2]): 0.0011 s⁻¹
B7: C0021142 Fab (antibody, V domains shown)
VH: B3 VH with Y51H, G52T, Y53H, G54S, I55P
VL: B3 VL

Results, binding to human ARG1 (BLI) (human ARG1): No binding observed
ka (cynomolgus ARG2): 437000 M⁻¹ s⁻¹
kd (cynomolgus ARG2): 0.000771 s⁻¹
ka (human ARG2; [2]): 266000 M⁻¹ s⁻¹
kd (human ARG2; [2]): 0.000674 s⁻¹
B8: C0021128: anti-ARG2 antibody, VH SEQ ID NO: 162, VL SEQ ID NO: 167 (antibody, listed as Homo sapiens, V domains shown)
VH: B1 VH with R30Q, D32E, Y33V, H34A, V35A, S54P, G55I, G56P, S57K, T58G
VL: B3 VL with S53A, E54I, R55E, P56S, E84G, S95N
modifications: C0021128

ka (human ARG2; [2]): 295000 M⁻¹ s⁻¹
kd (human ARG2; [2]): 0.00146 s⁻¹
B9: C0021097 Fab (antibody, V domains shown)
VH: B3 VH with Y51I, G52S, G54H, I55P
VL: B3 VL with D51N, N52T, S53F, E54A

ka (human ARG2; [2]): 314000 M⁻¹ s⁻¹
kd (human ARG2; [2]): 0.00107 s⁻¹
B10: C0021101 Fab (antibody, V domains shown)
VH: B6 VH with L45P, Y54F, G56P
VL: B3 VL with D51N, S53R, E54S, R55P, P56T

ka (human ARG2; [2]): 473000 M⁻¹ s⁻¹
kd (human ARG2; [2]): 0.002 s⁻¹
B11: C0021021 Fab (antibody, V domains shown)
VH: B3 VH with A50S, Y51I, G52L, Y53F, G54S, I55P
VL: B3 VL
